Reference: patent US20100041610A1

Biological target: Class A TC protein XptA2wi (Xenorhabdus nematophilus xwi)
Assay: cell-based or functional assay

Substance: TcdB2+TccC3 complex (non fused)
- killing/stunting activity against corn earworm larvae, XptA2 held constant at 250 ng/cm^2: 7.8 ng/cm^2
